Measured values as given in PMC11645210.

Target: Shaanxi2011 RBD (bat sarbecovirus Shaanxi2011)
Experiment: SPR

Q: VIR-7229 Fab fragment was tested. Which Kd did it give?
A: 185 nM

Q: And the koff?
A: 0.00985 s⁻¹

Q: And the kon?
A: 53500 M⁻¹ s⁻¹
